The source of these data is patent publication US20020127702, “Methods and compositions for regulating cell cycle progression” (published 2002).

Data set [1] addresses T1, hCdc5 DNA-binding domain (aa 1-500) (Homo sapiens, UniProt Q99459 SEQ:1-500). The data set can be described thus: EMSA; amino terminus of hCdc5. The note with it: tags: His6 fusion (pET29c(+), E. coli BL21(DE3), Ni-NTA); chain copies: forms homodimers by glutaraldehyde cross-linking in vitro. The text has this: (§1) To determine whether hCdc5 interacts with specific genomic sequences through direct DNA binding, we first surveyed the 12 genomic sequences (totaling ˜36,200 bp) identified by binding selection in yeast for the synthetic consensus binding sequence identified by cyclic amplification and selection in the example above. An exact match was not found, although this was not surprising as the likelihood of finding a unique 12 bp sequence is 6×10⁻⁸, and is predicted to occur by chance ˜180 times in the human genome. We then used the information obtained by scanning mutagenesis to look for sites containing the core “ANCA” motif flanked by palindromes within the genomic clones. […] Complementary oligonucleotides representing the sequences in Table 2 flanked by the non-random oligo flanking sequences used in the oligonucleotide selection experiments described above were used for the gel shift assays. Two of these active binding sites were found in the two clones which represented overlapping sequences from the same region of the genome (clones 6 and 30). All 3 sites shared features of the consensus binding sequence: a core “ANCA” motif, AT-rich flanking palindromes, and a distance between core and palindromes of no more than 3 bp.

The target of data set [2] is T1, hCdc5 DNA-binding domain (aa 1-500). The data set can be described thus: EMSA; data not shown; protein construct not specified. The note with it: tags: His6 fusion (pET29c(+), E. coli BL21(DE3), Ni-NTA); chain copies: forms homodimers by glutaraldehyde cross-linking in vitro.
Data set [3] has the same target. Kind of data set: EMSA; text: abolished. The note with it: tags: His6 fusion (pET29c(+), E. coli BL21(DE3), Ni-NTA); chain copies: forms homodimers by glutaraldehyde cross-linking in vitro; label: 32P. As for the experimental part:
Labeled oligonucleotides bearing substitutions in each of the bases comprising the consensus sequence were incubated with recombinant His₆-hCdc5 and gel shift assays were carried out as described above to determine the binding affinities for the mutated sequences. […] Substitutions at any other position abolished DNA-protein binding implicating these residues as critical for the interaction.
In general terms: Mobility shift assays separate free from complexed probe on a gel.

Data set [4] has the same target. Kind of data set: EMSA; single-stranded sense. The note with it: tags: His6 fusion (pET29c(+), E. coli BL21(DE3), Ni-NTA); chain copies: forms homodimers by glutaraldehyde cross-linking in vitro.
Data set [5] deals with hCdc5 W31G W53G W82G mutant (Homo sapiens, UniProt Q99459 SEQ:1-500, W31G,W53G,W82G). The data set can be described thus: EMSA; data not shown. The note with it: label: 32P.
Chain of hCdc5 W31G W53G W82G mutant (Q99459 1-500 W31G/W53G/W82G): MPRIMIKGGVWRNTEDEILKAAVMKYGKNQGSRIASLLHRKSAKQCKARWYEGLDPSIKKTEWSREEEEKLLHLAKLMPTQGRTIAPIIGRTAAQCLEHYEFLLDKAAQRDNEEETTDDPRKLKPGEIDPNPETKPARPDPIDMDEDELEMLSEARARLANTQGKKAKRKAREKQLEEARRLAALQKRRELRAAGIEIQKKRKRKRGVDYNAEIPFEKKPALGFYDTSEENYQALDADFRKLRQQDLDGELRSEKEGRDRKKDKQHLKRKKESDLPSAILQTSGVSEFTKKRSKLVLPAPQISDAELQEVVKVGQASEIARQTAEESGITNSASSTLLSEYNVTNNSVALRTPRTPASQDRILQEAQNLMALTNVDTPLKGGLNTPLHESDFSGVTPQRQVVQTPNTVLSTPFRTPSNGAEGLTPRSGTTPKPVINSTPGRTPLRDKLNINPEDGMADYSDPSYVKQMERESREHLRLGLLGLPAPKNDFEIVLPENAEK
The target in data set [6] is T1, hCdc5 DNA-binding domain (aa 1-500). The data set can be described thus: EMSA; 1 nM DNA, 2.5-40 nM protein; 10 mM HEPES pH 7.8, 75 mM KCl, 2.5 mM MgCl2, poly(dI-dC), room temperature. The settings on record: tags: His6 fusion (pET29c(+), E. coli BL21(DE3), Ni-NTA); chain copies: forms homodimers by glutaraldehyde cross-linking in vitro; label: 32P.
Data set [7] has the same target. The data set can be described thus: EMSA; amino terminus of hCdc5; clones 6 and 30 overlap; clone 6 printed as … in table but SEQ 15 given. The note with it: tags: His6 fusion (pET29c(+), E. coli BL21(DE3), Ni-NTA); chain copies: forms homodimers by glutaraldehyde cross-linking in vitro.
Description: as §1

For data set [8] the target is unchanged. The data set can be described thus: EMSA; single-stranded antisense. The note with it: tags: His6 fusion (pET29c(+), E. coli BL21(DE3), Ni-NTA); chain copies: forms homodimers by glutaraldehyde cross-linking in vitro.

A word on the Kd: it is the constant that tells how readily two partners part at equilibrium. Low values mean a tighter complex, high ones a looser complex.

T1 sequence (Q99459 1-500): as the sequence (Q99459 1-500 W31G/W53G/W82G) above, with G31W, G53W, G82W counted along it

B1: genomic clone 12 site 1 (dsDNA)
DNA 1: CGCTCGAGGGATCCGAATTCAAAGGGGAACACTTTTCTAGAAAGCTTGTCGACGC
DNA 2: GCGTCGACAAGCTTTCTAGAAAAGTGTTCCCCTTTGAATTCGGATCCCTCGAGCG
Regarding B1, the binding result in data set [1] was “binds”.

B2: genomic clone 8 site (dsDNA)
DNA 1: CGCTCGAGGGATCCGAATTCAATGAACGAATCAAATTTCTAGAAAGCTTGTCGACGC
DNA 2: GCGTCGACAAGCTTTCTAGAAATTTGATTCGTTCATTGAATTCGGATCCCTCGAGCG
Take B2: the binding result in data set [1] was “no binding”.

B3: genomic clone 12 site 2 (dsDNA)
DNA 1: CGCTCGAGGGATCCGAATTCCCCCCCTTTAAACCAGCGTGGAGGGGGGTCTAGAAAGCTTGTCGACGC
DNA 2: GCGTCGACAAGCTTTCTAGACCCCCCTCCACGCTGGTTTAAAGGGGGGGAATTCGGATCCCTCGAGCG
Regarding B3, the binding result in data set [1] is on record as “no binding”.

B4: new-palindrome mutant GATGTAACATAC (dsDNA)
DNA 1: GATGTAACATAC
DNA 2: GTATGTTACATC
Take B4: the binding result in data set [2] is reported as “no binding”.

B5: consensus mutant position 11 (dsDNA)
DNA 1: GATTTAACATCA
DNA 2: TGATGTTAAATC
As for B5, the binding signal in data set [3] is 0.2 fraction of control.

Consider GATTTAACATAA (ssDNA) [consensus site single-stranded sense], for which the binding result in data set [4] is listed as “no binding”.

B6: new-palindrome mutant GATATAACATAT (dsDNA)
DNA 1: GATATAACATAT
DNA 2: ATATGTTATATC
For B6, the binding result in data set [2] is on record as “no binding”.

B7: consensus mutant position 4 (dsDNA)
DNA 1: GATGTAACATAA
DNA 2: TTATGTTACATC
Take B7: in data set [3], the binding signal is 0.2 fraction of control.

B8: hCdc5 consensus site (dsDNA)
DNA 1: GATTTAACATAA
DNA 2: TTATGTTAAATC
As to B8, the binding result in data set [5] is “no binding”. Further, the dissociation constant Kd in data set [6] is ~10 nM.

B9: genomic clone 6/30 site (dsDNA)
DNA 1: CGCTCGAGGGATCCGAATTCAATAAAATCAAAATTTCTAGAAAGCTTGTCGACGC
DNA 2: GCGTCGACAAGCTTTCTAGAAATTTTGATTTTATTGAATTCGGATCCCTCGAGCG
For the molecule B9, the binding result in data set [7] is “binds”.

B10: consensus mutant position 10 (dsDNA)
DNA 1: GATTTAACAGAA
DNA 2: TTCTGTTAAATC
For B10, the binding signal in data set [3] was 0.2 fraction of control.

As for TTATGTTAAATC (ssDNA, [NONE]) [consensus site single-stranded antisense], the binding result in data set [8] is “no binding”.

B11: consensus mutant position 9 (dsDNA)
DNA 1: GATTTAACCTAA
DNA 2: TTAGGTTAAATC
For the molecule B11, in data set [3], the binding signal is 0.2 fraction of control.

B12: consensus mutant position 6 (dsDNA)
DNA 1: GATTTCACATAA
DNA 2: TTATGTGAAATC
As for B12, in data set [3], the binding signal was 0.1 fraction of control.

B13: genomic clone 25 site (dsDNA)
DNA 1: CGCTCGAGGGATCCGAATTCAATTCCCCGGATCATTGCAAACAATTTCTAGAAAGCTTGTCGACGC
DNA 2: GCGTCGACAAGCTTTCTAGAAATTGTTTGCAATGATCCGGGGAATTGAATTCGGATCCCTCGAGCG
Consider B13, for which the binding result in data set [1] is reported as “no binding”.

B14: consensus mutant position 3 (dsDNA)
DNA 1: GAGTTAACATAA
DNA 2: TTATGTTAACTC
On to B14, for which the binding signal in data set [3] was 0.2 fraction of control.

B15: consensus mutant position 8 (dsDNA)
DNA 1: GATTTAATATAA
DNA 2: TTATATTAAATC
With B15, the binding signal in data set [3] was 0.2 fraction of control.
